These results are taken from article PMC4837377 (Scientific Reports, 2016).

The data set deals with the molecule itself. The data set is described as follows: SEC-MALS. A general note: SEC sorts molecules by how far they enter the pores of the column.

B1: PA-PB1-PB2(1-116) truncated heterotrimer (construct 15) (complex)
chain 1: […]
chain 2: MDVNPTLLFLKVPAQNAISTTFPYTGDPPYSHGTGTGYTMDTVNRTHQYSEKGKWTTNTETGAAQLNPIDGPLPEDNEPSGYAQTDCVLEAMAFLEESHPGIFENSCLETMEVVQQTRVDRLTQGRQTYDWTLNRNQPAATALANTIEVFRSNGLIANESGRLIDFLKDVIESMDKEEMEITTHFQRKRRVRDNMTKKMVTQRTIGKKKQRVNKRSYLIRALTLNTMTKDAERGKLKRRAIATPGMQIRGFVYFVETLARSICEKLEQSGLPVGGNEKKAKLANVVRKMMTNSQDTELSFTITGDNTKWNENQNPRMFLAMITYITKNQPEWFRNILSIAPIMFSNKMARLGKGYMFESKRMKLRTQIPAEMLASIDLKYFNESTRKKIEKIRPLLIDGTASLSPGMMMGMFNMLSTVLGVSILNLGQKKYTKTTYWWDGLQSSDDFALIVNAPNHEGIQAGVDRFYRTCKLVGINMSKKKSYINRTGTFEFTSFFYRYGFVANFSMELPSFGVSGINESADMSIGVTVIKNNMINNDLGPATAQMALQLFIKDYRYTYRCHRGDTQIQTRRSFELKKLWEQTRSKAGLLVSDGGPNLYNIRNLHIPEVCLKWELMDEDYQGRLCNPLNPFVSHKEIESVNNAVVMPAHGPAKSMEYDAVATTHSWIPKRNRSILNTSQRGILEDEQMYQKCCNLFEKFFPSSSYRRPVGISSMVEAMVSRARIDARIDFESGRIKKEEFSEIMKICSTIEELRRQK
chain 3: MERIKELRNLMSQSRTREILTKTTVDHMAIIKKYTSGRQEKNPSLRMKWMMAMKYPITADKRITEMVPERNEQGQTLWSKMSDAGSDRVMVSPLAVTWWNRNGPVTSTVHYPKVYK
notes: copies: + +
As usually defined, the stoichiometry N is the number of molecules, sites or subunits per partner or assembly. Consider B1, for which the “stoichiometry N” value is 2.

B2: PA-PB1-PB2(1-250) truncated heterotrimer (construct 16) (complex)
chain 1: […]
chain 2: B1 chain 2
chain 3: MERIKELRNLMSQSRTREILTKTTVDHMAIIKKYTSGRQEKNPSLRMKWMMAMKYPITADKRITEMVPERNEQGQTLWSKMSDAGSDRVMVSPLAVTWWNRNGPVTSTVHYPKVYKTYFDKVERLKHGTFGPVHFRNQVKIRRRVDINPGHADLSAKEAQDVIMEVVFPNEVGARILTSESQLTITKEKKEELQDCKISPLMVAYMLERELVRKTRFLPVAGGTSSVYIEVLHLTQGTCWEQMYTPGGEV
notes: copies: + +
In the case of B2, the “stoichiometry N” value worked out at 2.
